Experimental data as given in US9260500B2, “Peptide and use thereof” (Takeda Pharmaceutical Company Limited, priority 2009, dated 2016).
Non-standard residues stand in square brackets, D forms with d. *: point of attachment. X4 = ((1S)-1-Carboxy-3-methylbutyl)carbamoyl, CC(C)C[C@H](NC(=O)*)C(=O)O; (5-carboxypentyl)carbamoyl = O=C(O)CCCCCNC(=O)*; Imidazole4carbonyl = O=C(c1cnc[nH]1)*; Arg(Me) = CNC(=N)NCCC[C@H](N)C(=O)O; 4Pal = N[C@@H](Cc1ccncc1)C(=O)O; Cha = N[C@@H](CC1CCCCC1)C(=O)O; Iva = CC[C@](C)(N)C(=O)O; Aib = CC(C)(N)C(=O)O

Key:
[1] = target: T1, human Y2 receptor (Homo sapiens, UniProt P49146); test: Receptor Binding Assay (RBA) for Human Y2, [125I]-PYY displacement on hY2R/CHO membrane fraction; conditions: IC50 of test compound/IC50 of PYY(3-36) (PYY(3-36) taken as 1)
T1 construct: expressed in transfected cells; membrane fraction
T1 sequence (P49146 1-381): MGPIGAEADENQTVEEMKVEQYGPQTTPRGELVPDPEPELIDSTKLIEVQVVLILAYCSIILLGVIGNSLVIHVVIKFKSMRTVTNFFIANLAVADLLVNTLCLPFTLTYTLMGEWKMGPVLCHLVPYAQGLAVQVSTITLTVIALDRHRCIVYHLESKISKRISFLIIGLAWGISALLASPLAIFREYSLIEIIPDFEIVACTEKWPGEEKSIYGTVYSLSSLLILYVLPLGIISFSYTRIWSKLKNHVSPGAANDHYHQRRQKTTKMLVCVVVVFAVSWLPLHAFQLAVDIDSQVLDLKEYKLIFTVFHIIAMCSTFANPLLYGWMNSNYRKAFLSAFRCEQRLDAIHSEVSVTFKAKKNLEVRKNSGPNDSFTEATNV
Outline: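 Read-out is [125I]-PYY displacement from membranes of CHO/dhfr− cells stably transfected with human Y2R. Membranes were obtained by disrupting cells in a buffer of 10 mM NaHCO3, 5 mM EDTA and protease inhibitors.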

[2] = target: T1, human Y2 receptor; test: Human Y2 Receptor G Protein Binding Assay (GBA), [35S]GTPγS; format: biochemical; conditions: EC50 of test compound/EC50 of PYY(3-36) (PYY3-36 taken as 1), hY2R/CHO membrane fraction
Outline: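 Agonism measured as [35S]GTPγS binding, read by GF/C filtration and scintillation counting after 120 min at room temperature, using human Y2 membranes at 1 μg protein/mL in pH 7.4 Tris/MgCl2/NaCl/GDP buffer. Compound serially diluted 100 μM–1 nM; EC50 normalized to PYY(3-36) (ratio = compound/PYY).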

[3] = tested on: male C57EL/6J mice; test: 3-Days Continuous Subcutaneous Administration Test-1 (food intake suppressing activity); format: in vivo, mouse; conditions: 0.03 mg/kg/day, subcutaneous Alzet pump, food consumption over 3 days; relative to food intake suppression rate for PYY(3-36) (1 mg/kg/day) taken as 100%
Outline: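 Male […] mice, 12-13 weeks, received compound at 0.03 mg/kg/day by subcutaneous osmotic pump (50% DMSO vehicle), housed singly with free food access. Food consumed over 3 days measured; suppression expressed relative to PYY(3-36) (1 mg/kg/day) set as 100%.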

Row | Substance | RBA IC50 Ratio [1] | GBA EC50 Ratio [2] | food intake suppression rate (%) [3] [%]
1 | [(1S)-1-Carboxy-3-methylbutyl]carbamoyl-[Glu23, D-Pro24, Pya(4)26, Cha27,36, Aib28,31, Lys30]-PYY(23-36) (X4-E[dP]R[4Pal][Cha][Aib]NK[Aib]TRQR[Cha]-NH2; SMILES CC(C)C[C@H](NC(=O)N[C@@H](CCC(=O)O)C(=O)N1CCC[C@@H]1C(=O)N[C@@H](CCCNC(=N)N)C(=O)N[C@@H](Cc1ccncc1)C(=O)N[C@@H](CC1CCCCC1)C(=O)NC(C)(C)C(=O)N[C@@H](CC(N)=O)C(=O)N[C@@H](CCCCN)C(=O)NC(C)(C)C(=O)N[C@H](C(=O)N[C@@H](CCCNC(=N)N)C(=O)N[C@@H](CCC(N)=O)C(=O)N[C@@H](CCCNC(=N)N)C(=O)N[C@@H](CC1CCCCC1)C(N)=O)[C@@H](C)O)C(=O)O) [compound No. 283] | 2.2 | 2.5 | 18
2 | Ac-[D-Pro24, Iva25, Pya(4)26, Cha27,36, Aib28,31, Arg(Me)30]-PYY(23-36) (Ac-S[dP][Iva][4Pal][Cha][Aib]N[Arg(Me)][Aib]TRQR[Cha]-NH2) [compound No. 316] | 2.4 | 1.7 | 29

Now from value to substance, other results behind:

Row | RBA IC50 Ratio [1] | GBA EC50 Ratio [2] | Substance | food intake suppression rate (%) [3] [%]
3 | 1.3 | 1.3 | 4-Imidazolecarbonyl-[Glu23, D-Pro24, Pya(4)26, Cha27,36, Aib28,31, Lys30]-PYY(23-36) (Imidazole4carbonyl-E[dP]R[4Pal][Cha][Aib]NK[Aib]TRQR[Cha]-NH2; SMILES C[C@@H](O)[C@H](NC(=O)C(C)(C)NC(=O)[C@H](CCCCN)NC(=O)[C@H](CC(N)=O)NC(=O)C(C)(C)NC(=O)[C@H](CC1CCCCC1)NC(=O)[C@H](Cc1ccncc1)NC(=O)[C@H](CCCNC(=N)N)NC(=O)[C@H]1CCCN1C(=O)[C@H](CCC(=O)O)NC(=O)c1cnc[nH]1)C(=O)N[C@@H](CCCNC(=N)N)C(=O)N[C@@H](CCC(N)=O)C(=O)N[C@@H](CCCNC(=N)N)C(=O)N[C@@H](CC1CCCCC1)C(N)=O) [compound No. 216] | 36
4 | 0.58 | 0.91 | Ac-[Iva24, Pya(4)26, Cha27,36, Aib28,31, Lys30]-PYY(23-36) (Ac-S[Iva]R[4Pal][Cha][Aib]NK[Aib]TRQR[Cha]-NH2; SMILES CC[C@](C)(NC(=O)[C@H](CO)NC(C)=O)C(=O)N[C@@H](CCCNC(=N)N)C(=O)N[C@@H](Cc1ccncc1)C(=O)N[C@@H](CC1CCCCC1)C(=O)NC(C)(C)C(=O)N[C@@H](CC(N)=O)C(=O)N[C@@H](CCCCN)C(=O)NC(C)(C)C(=O)N[C@H](C(=O)N[C@@H](CCCNC(=N)N)C(=O)N[C@@H](CCC(N)=O)C(=O)N[C@@H](CCCNC(=N)N)C(=O)N[C@@H](CC1CCCCC1)C(N)=O)[C@@H](C)O) [compound No. 241] | 16
5 | 1.2 | 1.5 | (5-carboxypentyl)carbamoyl-[D-Pro24, Pya(4)26, Cha27,36, Aib28,31, Lys30]-PYY(23-36) ({(5-carboxypentyl)carbamoyl}-S[dP]R[4Pal][Cha][Aib]NK[Aib]TRQR[Cha]-NH2; SMILES C[C@@H](O)[C@H](NC(=O)C(C)(C)NC(=O)[C@H](CCCCN)NC(=O)[C@H](CC(N)=O)NC(=O)C(C)(C)NC(=O)[C@H](CC1CCCCC1)NC(=O)[C@H](Cc1ccncc1)NC(=O)[C@H](CCCNC(=N)N)NC(=O)[C@H]1CCCN1C(=O)[C@H](CO)NC(=O)NCCCCCC(=O)O)C(=O)N[C@@H](CCCNC(=N)N)C(=O)N[C@@H](CCC(N)=O)C(=O)N[C@@H](CCCNC(=N)N)C(=O)N[C@@H](CC1CCCCC1)C(N)=O) [compound No. 294] | 45
